Reference: US20240116997A1
pKd: −log10 of the molar value.

These substances were tested against His-tagged human IL-18BP (human) (UniProt O95998) (assay: AlphaLISA of free IL-18BP after incubation with IL-18 dilutions).
Chain of His-tagged human IL-18BP (human) (O95998 31-194): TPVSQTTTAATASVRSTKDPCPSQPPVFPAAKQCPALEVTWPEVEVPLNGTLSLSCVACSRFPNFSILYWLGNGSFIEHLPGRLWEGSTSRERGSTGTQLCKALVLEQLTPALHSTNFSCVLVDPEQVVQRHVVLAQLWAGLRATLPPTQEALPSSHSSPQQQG

Chain of IL-18 WT (native sequence, SEQ ID NO: 1) (Q14116 37-193): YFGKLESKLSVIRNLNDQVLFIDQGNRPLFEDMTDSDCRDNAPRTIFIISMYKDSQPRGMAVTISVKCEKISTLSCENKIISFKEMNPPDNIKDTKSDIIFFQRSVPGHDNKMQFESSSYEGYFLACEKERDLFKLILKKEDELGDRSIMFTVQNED

Substance | pKd
C142 (Y1M, E6K, V11I, C38A, K53A, T63A, C76A, C127A) (from UniProt Q14116 38-193) (ligand) | 8.65
C143 (V11I, C38A, K53A, C76A, C127A) (from UniProt Q14116 37-193) (ligand) | 8.05
C144 (V11I, C38A, K53A, T63A, C76A, C127A) (from UniProt Q14116 37-193) (ligand) | 9.18
C145 (V11I, C38A, K53A, S55A, C76A, C127A) (from UniProt Q14116 37-193) (ligand) | 8.01
C146 (SEQ ID NO: 79; V11I, C38A, M51G, K53A, C76A, C127A) (from UniProt Q14116 37-193) (ligand) | 6.43
C147 (V11I, C38A, K53A, D54A, C76A, C127A) (from UniProt Q14116 37-193) (ligand) | 7.59
C148 (F2A, V11I, C38A, K53A, C76A, C127A) (from UniProt Q14116 37-193) (ligand) | 7.24
C149 (V11I, E31A, C38A, K53A, C76A, C127A) (from UniProt Q14116 37-193) (ligand) | 9.19
C150 (V11I, T34A, C38A, K53A, C76A, C127A) (from UniProt Q14116 37-193) (ligand) | 8.91
C151 (V11I, D35A, C38A, K53A, C76A, C127A) (from UniProt Q14116 37-193) (ligand) | 8.54
C152 (V11I, S36A, C38A, K53A, C76A, C127A) (from UniProt Q14116 37-193) (ligand) | 8.95
C153 (V11I, D37A, C38A, K53A, C76A, C127A) (from UniProt Q14116 37-193) (ligand) | 8.34
C154 (V11I, E31A, D37A, C38A, K53A, C76A, C127A) (from UniProt Q14116 37-193) (ligand) | 8.67
C155 (V11I, C38A, D40A, K53A, C76A, C127A) (from UniProt Q14116 37-193) (ligand) | 9.13
C156 (V11I, C38A, N41A, K53A, C76A, C127A) (from UniProt Q14116 37-193) (ligand) | 7.73
C157 (V11I, C38A, K53A, C76A, C127A, D132A) (from UniProt Q14116 37-193) (ligand) | 7.86
C158 (V11I, C38A, K53A, C76A, G108A, C127A) (from UniProt Q14116 37-193) (ligand) | 8.91
C159 (V11I, C38A, K53A, C76A, H109A, C127A) (from UniProt Q14116 37-193) (ligand) | 9.26
C160 (V11I, C38A, K53A, C76A, D110A, C127A) (from UniProt Q14116 37-193) (ligand) | 9.15
C161 (K8R, V11I, C38A, C76A, Q103E, C127A) (from UniProt Q14116 37-193) (ligand) | 10.22
C162 (K8E, V11I, C38A, C76A, Q103R, C127A) (from UniProt Q14116 37-193) (ligand) | 9.07
C163 (V11I, C38A, C76A, Q103K, C127A) (from UniProt Q14116 37-193) (ligand) | 10.30
C164 (V11I, C38A, S55H, C76A, C127A) (from UniProt Q14116 37-193) (ligand) | 10.10
C165 (V11I, C38A, S55R, C76A, C127A) (from UniProt Q14116 37-193) (ligand) | 9.82
C166 (V11I, C38A, S55T, C76A, C127A) (from UniProt Q14116 37-193) (ligand) | 10.70

Substance | pKd
C167 (V11I, C38A, C76A, S105I, C127A) (from UniProt Q14116 37-193) (ligand) | 10.40
C168 (V11I, C38A, C76A, S105K, C127A) (from UniProt Q14116 37-193) (ligand) | 10.30
C174 (K8L, E6K, V11I, C38A, K53A, T63A, C76A, C127A) (from UniProt Q14116 37-193) (ligand) | 9.85
C176 (E6K, V11I, C38A, I49M, K53A, T63A, C76A, C127A) (from UniProt Q14116 37-193) (ligand) | 7.59
C184 (E6R, V11I, C38A, K53A, T63A, C76A, C127A) (from UniProt Q14116 37-193) (ligand) | 8.26
IL-18 WT (native sequence, SEQ ID NO: 1) (from UniProt Q14116 37-193) (ligand) | 9.17
IL-18 polypeptide SEQ ID NO: 35 (Y01G, F02A, E06K, M51G, K53A, D54A, S55A, T63A) (from UniProt Q14116 37-193) (ligand) | 6.01
IL-18 polypeptide SEQ ID NO: 36 (K53A) (from UniProt Q14116 37-193) (ligand) | 6.29
IL-18 polypeptide SEQ ID NO: 37 (S55A) (from UniProt Q14116 37-193) (ligand) | 7.97
IL-18 polypeptide SEQ ID NO: 38 (E06K) (from UniProt Q14116 37-193) (ligand) | 9.89
IL-18 polypeptide SEQ ID NO: 39 (E06K, K53A) (from UniProt Q14116 37-193) (ligand) | 6.89
IL-18 polypeptide SEQ ID NO: 40 (E06K, S55A) (from UniProt Q14116 37-193) (ligand) | 7.91
IL-18 polypeptide SEQ ID NO: 41 (K53A, S55A) (from UniProt Q14116 37-193) (ligand) | 6.30
IL-18 polypeptide SEQ ID NO: 42 (E06K, K53A, S55A, T63A) (from UniProt Q14116 37-193) (ligand) | 6.09
IL-18 polypeptide SEQ ID NO: 47 (C38S, C68S, C76S, C127S) (from UniProt Q14116 37-193) (ligand) | 10.52
IL-18 polypeptide SEQ ID NO: 48 (C38S, C68S, C76S, C127S, K70C) (from UniProt Q14116 37-193) (ligand) | 9.68
IL-18 polypeptide SEQ ID NO: 50 (E06K, K53A, T63A) (from UniProt Q14116 37-193) (ligand) | 6.47
IL-18 polypeptide SEQ ID NO: 51 (T63A) (from UniProt Q14116 37-193) (ligand) | 8.59
IL-18 polypeptide SEQ ID NO: 52 (E06K, T63A) (from UniProt Q14116 37-193) (ligand) | 9.08
IL-18 polypeptide SEQ ID NO: 53 (K53A, T63A) (from UniProt Q14116 37-193) (ligand) | 6.70
IL-18 polypeptide SEQ ID NO: 54 (E06K, K53A, C38S, C68S, C76S, C127S, K70C) (from UniProt Q14116 37-193) (ligand) | 6.35
IL-18 polypeptide SEQ ID NO: 55 (K53A, T63A, C38S, C68S, C76S, C127S, K70C) (from UniProt Q14116 37-193) (ligand) | 6.04
IL-18 polypeptide SEQ ID NO: 56 (E6K, K53A, C38S, C76S, C127S) (from UniProt Q14116 37-193) (ligand) | 6.36
IL-18 polypeptide SEQ ID NO: 57 (E6K, C38S, K53A) (from UniProt Q14116 37-193) (ligand) | 7.30
